Reference: patent US20110118131A1 (published 2011)
Numbering of substitutions follows the chain as printed. Names and notes keep the numbering of the source.

T1: Ep-CAM (UniProt P16422 24-265, limits assumed)
T1 construct: Antigen of the Biacore analysis of ING-1 variants
T1 sequence (looked up): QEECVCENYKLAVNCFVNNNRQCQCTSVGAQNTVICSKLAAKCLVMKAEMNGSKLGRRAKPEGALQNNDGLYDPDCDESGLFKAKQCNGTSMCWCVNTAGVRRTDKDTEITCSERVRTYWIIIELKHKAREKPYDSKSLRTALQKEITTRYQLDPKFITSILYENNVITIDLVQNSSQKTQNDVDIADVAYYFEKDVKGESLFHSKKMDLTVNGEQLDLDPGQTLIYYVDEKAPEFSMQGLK

B1: ING-1 heavy chain D104F (Fab, V domains shown)
VH: QIQLVQSGPELKKPGETVKISCKASGYTFTKYGMNWVKQAPGKGLKWMGWINTYTEEPTYGDDFKGRFAFSLETSASTANLQINNLKSEDTATYFCARFGSAVFYWGQGTSVTVSS
VL: DIVMTQAAFSNPVTLGTSGSISCRSSKSLLHSNGITYLYWYLQKPGQSPQLLIYQMSNLASGVPDRFSSSGSGTDFTLRISRVEAEDVGVYYCAQNLELPRTFGGGTKLEMKR
B2: ING-1 heavy chain D104Y (Fab, V domains shown)
VH: B1 VH with F104Y
VL: B1 VL
B3: ING-1 heavy chain D104R (Fab, V domains shown)
VH: B1 VH with F104R
VL: B1 VL
B4: ING-1 heavy chain G33D (Fab, V domains shown)
VH: B1 VH with G33D, F104D
VL: B1 VL
B5: ING-1 heavy chain D104Q (Fab, V domains shown)
VH: B1 VH with F104Q
VL: B1 VL
B6: ING-1 heavy chain G33K (Fab, V domains shown)
VH: B1 VH with G33K, F104D
VL: B1 VL
B7: ING-1 heavy chain G33E (Fab, V domains shown)
VH: B1 VH with G33E, F104D
VL: B1 VL
B8: ING-1 heavy chain D104K (Fab, V domains shown)
VH: B1 VH with F104K
VL: B1 VL
B9: ING-1 heavy chain G33R (Fab, V domains shown)
VH: B1 VH with G33R, F104D
VL: B1 VL
B10: ING-1 heavy chain G33N (Fab, V domains shown)
VH: B1 VH with G33N, F104D
VL: B1 VL
B11: ING-1 heavy chain G33H (Fab, V domains shown)
VH: B1 VH with G33H, F104D
VL: B1 VL
B12: ING-1 heavy chain G33W (Fab, V domains shown)
VH: B1 VH with G33W, F104D
VL: B1 VL
B13: ING-1 heavy chain G33Q (Fab, V domains shown)
VH: B1 VH with G33Q, F104D
VL: B1 VL
B14: ING-1 heavy chain D104H (Fab, V domains shown)
VH: B1 VH with F104H
VL: B1 VL
B15: ING-1 heavy chain D104W (Fab, V domains shown)
VH: B1 VH with F104W
VL: B1 VL
B16: ING-1 heavy chain E57Q (Fab, V domains shown)
VH: B1 VH with E57Q, F104D
VL: B1 VL
B17: XPA23 heavy chain T58V (Fab, V domains shown)
VH: EVQLLESGGGLVQPGGSLRLSCAASGFTFSKYFMFWVRQAPGKGLEWVSVISPSGGMVRYADSVKGRFTISRDNSKNTLYLQMNSLRAEDTAVYYCARVGYGGNSDYWGQGTLVTVSS
VL: DIQMTQSPSSVSASVGDRLTIICRASQDINRWLAWYQQTPGNAPKLLIHSATSLQSGVPSRFSGSGSGTDFTLTINSLQPEDFATYYCQQADSFPLTFGGGTKVEIK
notes: Fab, periplasmic extract; also called C5A T58V
B18: XPA23 heavy chain Y107P (Fab, V domains shown)
VH: B17 VH with V58T, Y107P
VL: B17 VL
notes: Fab, periplasmic extract; also called C5A Y107P
B19: XPA23 heavy chain Y32V (Fab, V domains shown)
VH: B17 VH with Y32V, V58T
VL: B17 VL
notes: Fab, periplasmic extract; also called C5A Y32V
B20: XPA23 heavy chain Y32T (Fab, V domains shown)
VH: B17 VH with Y32T, V58T
VL: B17 VL
notes: Fab, periplasmic extract; also called C5A Y32T
B21: XPA23 heavy chain Y101V (Fab, V domains shown)
VH: B17 VH with V58T, Y101V
VL: B17 VL
notes: Fab, periplasmic extract; also called C5A Y101V
B22: XPA23 heavy chain Y32L (Fab, V domains shown)
VH: B17 VH with Y32L, V58T
VL: B17 VL
notes: Fab, periplasmic extract; also called C5A Y32L
B23: XPA23 heavy chain Y107V (Fab, V domains shown)
VH: B17 VH with V58T, Y107V
VL: B17 VL
notes: Fab, periplasmic extract; also called C5A Y107V
B24: XPA23 heavy chain Y101L (Fab, V domains shown)
VH: B17 VH with V58T, Y101L
VL: B17 VL
notes: Fab, periplasmic extract; also called C5A Y101L
B25: XPA23 heavy chain Y101A (Fab, V domains shown)
VH: B17 VH with V58T, Y101A
VL: B17 VL
notes: Fab, periplasmic extract; also called C5A Y101A
B26: XPA23 heavy chain V99T (Fab, V domains shown)
VH: B17 VH with V58T, V99T
VL: B17 VL
notes: Fab, periplasmic extract; also called C5A V99T
B27: XPA23 heavy chain V50T (Fab, V domains shown)
VH: B17 VH with V50T, V58T
VL: B17 VL
notes: Fab, periplasmic extract; also called C5A V50T
B28: XPA23 heavy chain V50A (Fab, V domains shown)
VH: B17 VH with V50A, V58T
VL: B17 VL
notes: Fab, periplasmic extract; also called C5A V50A
B29: XPA23 heavy chain Y32G (Fab, V domains shown)
VH: B17 VH with Y32G, V58T
VL: B17 VL
notes: Fab, periplasmic extract; also called C5A Y32G
B30: XPA23 heavy chain Y107T (Fab, V domains shown)
VH: B17 VH with V58T, Y107T
VL: B17 VL
notes: Fab, periplasmic extract; also called C5A Y107T
B31: XPA23 heavy chain Y101P (Fab, V domains shown)
VH: B17 VH with V58T, Y101P
VL: B17 VL
notes: Fab, periplasmic extract; also called C5A Y101P
B32: XPA23 heavy chain Y107I (Fab, V domains shown)
VH: B17 VH with V58T, Y107I
VL: B17 VL
notes: Fab, periplasmic extract; also called C5A Y107I
B33: XPA23 heavy chain Y107G (Fab, V domains shown)
VH: B17 VH with V58T, Y107G
VL: B17 VL
notes: Fab, periplasmic extract; also called C5A Y107G
B34: XPA23 heavy chain Y107A (Fab, V domains shown)
VH: B17 VH with V58T, Y107A
VL: B17 VL
notes: Fab, periplasmic extract; also called C5A Y107A
B35: XPA23 heavy chain V50I (Fab, V domains shown)
VH: B17 VH with V50I, V58T
VL: B17 VL
notes: Fab, periplasmic extract; also called C5A V50I
B36: XPA23 heavy chain V50L (Fab, V domains shown)
VH: B17 VH with V50L, V58T
VL: B17 VL
notes: Fab, periplasmic extract; also called C5A V50L
B37: XPA23 heavy chain Y32P (Fab, V domains shown)
VH: B17 VH with Y32P, V58T
VL: B17 VL
notes: Fab, periplasmic extract; also called C5A Y32P
B38: XPA23 heavy chain V99A (Fab, V domains shown)
VH: B17 VH with V58T, V99A
VL: B17 VL
notes: Fab, periplasmic extract; also called C5A V99A
B39: XPA23 heavy chain Y101I (Fab, V domains shown)
VH: B17 VH with V58T, Y101I
VL: B17 VL
notes: Fab, periplasmic extract; also called C5A Y101I
B40: XPA23 heavy chain Y107L (Fab, V domains shown)
VH: B17 VH with V58T, Y107L
VL: B17 VL
notes: Fab, periplasmic extract; also called C5A Y107L
B41: XPA23 heavy chain V50G (Fab, V domains shown)
VH: B17 VH with V50G, V58T
VL: B17 VL
notes: Fab, periplasmic extract; also called C5A V50G
B42: XPA23 heavy chain Y101T (Fab, V domains shown)
VH: B17 VH with V58T, Y101T
VL: B17 VL
notes: Fab, periplasmic extract; also called C5A Y101T

Target: T1, Ep-CAM
Assay: Biacore, Fab periplasmic extract

Binder | binding result | fold difference in affinity vs original [fold]
B1 | no binding | –
B2 | no binding | –
B3 | no binding | –
B4 | no binding | –
B5 | no binding | –
B6 | no binding | –
B7 | no binding | –
B8 | no binding | –
B9 | – | 0.03
B10 | no binding | –
B11 | – | 0.02
B12 | no binding | –
B13 | – | 0.06
B14 | no binding | –
B15 | no binding | –
B16 | no binding | –

Target: T2, IL-1β (UniProt P01584 117-269)
T2 construct: Antigen of XPA23
Assay: Biacore, Fab periplasmic extract

Binder | fold difference in affinity against the original [fold]
B17 | 0.99
B18 | 0.04
B19 | 1.07
B20 | 0.8
B21 | 0.09
B22 | 0.75
B23 | 0.93
B24 | 1.91
B25 | 0.04
B26 | 0.1
B27 | 0.03
B28 | 0.09
B29 | 1
B30 | 0.83
B31 | 0.04
B32 | 0.96
B33 | 0.1
B34 | 0.83
B35 | 0.1
B36 | 0.09
B37 | 0.68
B38 | 0.03
B39 | 0.83
B40 | 0.86
B41 | 0.03
B42 | 0.06
